Reference: publication PMC5175368
Positions count from the first letter of the chain named.

B1: PA1T4StdG (structured_DNA)
DNA: CGTGTGGACCATGGGGTGAGTGGGTAGGTGTCCTGAGGAGGT
B2: PA1T4StdA (structured_DNA)
DNA: B1 DNA with G15A, G23A
B3: PA1StdG (structured_DNA)
DNA: AGAGAGCGTCGTGTGGACCATGGGGTGAGTGGGTAGGTGTCCTGAGGAGGTGCGCAAGT
B4: PA1StdA (structured_DNA)
DNA: B3 DNA with G24A, G32A

biological target: PA63 (cleaved protective antigen) (Bacillus anthracis, UniProt P13423 197-764); assay: filter binding
Sequence (P13423 197-764): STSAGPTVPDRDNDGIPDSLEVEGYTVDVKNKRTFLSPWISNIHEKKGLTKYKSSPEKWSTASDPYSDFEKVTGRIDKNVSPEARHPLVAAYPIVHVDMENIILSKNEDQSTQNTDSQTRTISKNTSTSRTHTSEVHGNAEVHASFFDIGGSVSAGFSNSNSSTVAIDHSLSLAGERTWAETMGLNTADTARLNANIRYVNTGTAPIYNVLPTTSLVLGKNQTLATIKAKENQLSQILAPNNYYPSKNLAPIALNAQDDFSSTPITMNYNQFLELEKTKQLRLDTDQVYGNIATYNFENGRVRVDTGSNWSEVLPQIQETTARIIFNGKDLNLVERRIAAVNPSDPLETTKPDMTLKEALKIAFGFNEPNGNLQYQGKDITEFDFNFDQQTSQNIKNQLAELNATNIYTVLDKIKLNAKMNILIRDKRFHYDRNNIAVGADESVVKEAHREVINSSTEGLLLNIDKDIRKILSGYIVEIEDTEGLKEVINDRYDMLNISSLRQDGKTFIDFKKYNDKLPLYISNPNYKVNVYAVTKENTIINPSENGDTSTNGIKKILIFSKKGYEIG

Binder	binding result
B1	no binding
B2	no binding
B3	no binding
B4	no binding
